Here are results for one molecule from US10188706B2, “Plasminogen activator mutants as anti-fibrinolytic agents” (HADASIT MEDICAL RESEARCH SERVICES & DEVELOPMENT LIMITED, priority 2012, dated 2019).

“Also recorded” adds a separate entry of the source.

Test [1] concerns the target T1, uPA (Homo sapiens, UniProt P00749).
T1 construct: Single-chain urokinase (uPA) was purified, characterized as previously reported; made in house
Nature of the test: Plasminogen activator activity, chromogenic assay without fibrin, activation by uPA. The conditions noted are these: FIG. 2D. The class given is biochemical. As to the method: (§1) Plasminogen Activator Activity
(§2) Plasminogen activator activity was determined by adding tPA (50 nM) or uPA (20 nM), to a reaction mixture containing Glu-plasminogen and the plasmin chromogenic substrate Spectrazyme PL (100 μM) in phosphate-buffered saline (PBS) at 37° C., and the light absorbance at 405 nm was measured continuously over time. The initial velocities of plasmin generation at the different conditions were calculated from the change in the A405 nm over time. The initial velocity of the reaction at each plasminogen concentration was obtained by calculating the change in the rate of A405 over different time intervals and the results were expressed as the change in optical density (ΔOD) per minute, which represents the slope of the initial velocity of plasminogen activation (Higazi A et al., J Biol Chem. (1995), 270(29):17375-80).

The next test addresses reteplase (Homo sapiens, UniProt P00750). In words: Fibrinolysis assay in human plasma derived clots, lysis by reteplase. The class given is biochemical. Particulars: reteplase 20 nM, mutant 10 nM, FIG. 2B. As to the method: (§3) Fibrinolysis Assay in Human Plasma Derived Clots
(§4) Clots were formed by placing human plasma (200 μL) in 16-mm diameter tissue culture wells flowed by adding thrombin (0.4 U/mL final concentration). Fibrinolysis was measured as described in Higazi A A et al., Blood (1998), 92(6):2075-83). Briefly, 10 μL tPA or uPA were placed over the plasma clots for 2 hours at 37° C., photographed and the diameter of the wholes were determined.

The target in test [2] is T1, uPA. Nature of the test: Fibrinolysis assay in human plasma derived clots, lysis by uPA. The class given is biochemical. The conditions noted are these: uPA 50 nM; mutant 50 nM; FIG. 2A, 2B. As to the method: as §3, §4
The next test deals with tPA. Nature of the test: Plasminogen activator activity, chromogenic assay without fibrin, activation by tPA. It is filed as biochemical, human. Particulars: FIG. 2D. As to the method:
as §1, §2

Another test relates to WT-tPA. Nature of the test: Fibrinolysis assay in human plasma derived clots, lysis by WT-tPA. It is filed as biochemical. As to the method: as §3, §4
Sequence of WT-tPA (P00750 36-562): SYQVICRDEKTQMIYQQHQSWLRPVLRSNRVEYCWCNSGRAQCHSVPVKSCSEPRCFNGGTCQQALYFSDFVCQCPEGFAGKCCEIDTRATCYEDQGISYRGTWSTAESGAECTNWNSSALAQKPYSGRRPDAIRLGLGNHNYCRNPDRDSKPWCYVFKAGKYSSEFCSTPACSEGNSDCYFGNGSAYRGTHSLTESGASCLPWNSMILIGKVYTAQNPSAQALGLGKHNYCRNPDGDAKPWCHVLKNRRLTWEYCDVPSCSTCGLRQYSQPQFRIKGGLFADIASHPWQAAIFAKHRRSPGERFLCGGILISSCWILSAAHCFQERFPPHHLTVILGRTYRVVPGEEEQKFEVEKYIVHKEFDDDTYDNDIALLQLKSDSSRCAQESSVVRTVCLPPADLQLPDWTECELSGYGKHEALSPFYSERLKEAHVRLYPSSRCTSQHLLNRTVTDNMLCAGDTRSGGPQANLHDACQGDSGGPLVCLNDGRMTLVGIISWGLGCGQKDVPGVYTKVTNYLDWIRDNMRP
Another test has as its system WT mice subjected to CHI. Nature of the test: Closed head injury (CHI) model of TBI in WT mice. It is filed as in vivo, mouse. The conditions noted are these: for neuroprotection (neurological severity score, NSS): given 2 hrs after CHI. As to the method: Eight to twelve weeks old C57 mice obtained from Harlan, Israel. Mice were administered standard laboratory chow and water ad libitum, and kept in controlled temperature and light conditions. Animal experiments were carried out according to the guidelines of the Hebrew University-Institutional Committee for Care and Use of Laboratory Animals, and with the committee's approval.
Closed Head Injury (CHI) Model
Head trauma was induced by using a modified weight-drop device, as previously described (Chen Y. et al. (1996) J. Neurotrauma, 13:557-568). Briefly, after induction of ether anesthesia, a midline longitudinal incision was made, the skin was retracted and the skull was exposed. The left anterior frontal area was identified and a Teflon tipped cone (2-mm diameter) was placed 1 mm lateral to the midline, in the midcoronal plane. The head was held in place manually and a 75-g weight was dropped on the cone from a height of 18 cm, resulting in focal injury to the left hemisphere. After trauma, the mice received supporting oxygenation with 95% 02 for no longer than 2 min and were then returned to their cages. In sham controls only anesthesia and skin incision were carried out.

[3] abbreviates: mutant 100 nM added together with TA.

B1: tPA-S^481A-DS: tPA double mutant, Ser481 to Ala and KHRR299-302 to AAAA (PAI-1 docking site); SEQ ID NO. 2 or 13 (protein, listed as Homo sapiens)
chain: GARSYQVICRDEKTQMIYQQHQSWLRPVLRSNRVEYCWCNSGRAQCHSVPVKSCSEPRCFNGGTCQQALYFSDFVCQCPEGFAGKCCEIDTRATCYEDQGISYRGTWSTAESGAECTNWNSSALAQKPYSGRRPDAIRLGLGNHNYCRNPDRDSKPWCYVFKAGKYSSEFCSTPACSEGNSDCYFGNGSAYRGTHSLTESGASCLPWNSMILIGKVYTAQNPSAQALGLGKHNYCRNPDGDAKPWCHVLKNRRLTWEYCDVPSCSTCGLRQYSQPQFRIKGGLFADIASHPWQAAIFAAAAASPGERFLCGGILISSCWILSAAHCFQERFPPHHLTVILGRTYRVVPGEEEQKFEVEKYIVHKEFDDDTYDNDIALLQLKSDSSRCAQESSVVRTVCLPPADLQLPDWTECELSGYGKHEALSPFYSERLKEAHVRLYPSSRCTSQHLLNRTVTDNMLCAGDTRSGGPQANLHDACQGDAGGPLVCLNDGRMTLVGIISWGLGCGQKDVPGVYTKVTNYLDWIRDNMRP
notes: tPA double mutant, Ser481 to Ala and KHRR299-302 to AAAA (PAI-1 docking site); 2 or 13
Turning to B1, the “plasminogen activation by uPA in the absence of fibrin, in the presence of TA” value with uPA [1] (setting [3]) is reported as “inhibited the activation of plasminogen by uPA”. Further, in the test with uPA [1] (plasminogen 500 nM, uPA 20 nM, mutants 100 nM or TA 200 nM alone), the “plasminogen activation by uPA in the absence of fibrin (change in OD per minute)” value is “Neither tPA-S^481A nor tPA-S^481A-DS inhibited”. For the same molecule, in the test with reteplase, the “clot lysis induced by reteplase” value is on record as “inhibit the clot lysis induced by reteplase”. For the same molecule, in the test with uPA [2], the “lysis of human plasma derived clots by uPA” value is listed as “Identical anti-fibrinolytic activity; also recorded: inhibited”. Further, in the test with tPA (setting [3]), the “plasminogen activation by tPA in the absence of fibrin, in the presence of TA” value was “inhibited the plasminogen activation induced by tPA”. In the test with tPA (plasminogen 500 nM, WT-tPA 50 nM, mutants 100 nM or TA 200 nM alone), the “plasminogen activation by tPA in the absence of fibrin (change in OD per minute)” value was “Neither tPA-S^481A nor tPA-S^481A-DS inhibited”. Moreover, the “potency as inhibitor of fibrinolysis compared with TA” value in the test with WT-tPA (TA tested at its maximal inhibitory concentration, FIG. 2B) is listed as “more potent inhibitors of fibrinolysis than TA”. Besides, the “lysis of human plasma derived clots by WT-tPA” value with WT-tPA (WT-tPA 20 nM, mutant 50 nM, FIG. 2A, 2B) is recorded as “Identical anti-fibrinolytic activity; also recorded: inhibited”. In the test on WT mice subjected to CHI (WT mice given WT-tPA 5 mg/kg immediately after CHI plus equimolar mutant), the “intracerebral hemorrhage increased by injected WT-tPA post CHI” value was “could be inhibited”. In addition, the “plasma levels of d-Dimers post CHI” value in the test on WT mice subjected to CHI (WT mice, 1 mg/kg IV, measured 2 hours after CHI, FIG. 4A, 1 mg/kg) is “significantly attenuated the increase in d-Dimers; also recorded: had the same effect on d-Dimers and post TBI thrombocytopenia”. Besides, the “platelet counts / thrombocytopenia post CHI” value with WT mice subjected to CHI (WT mice, 1 mg/kg IV, measured 2 hours after CHI, FIG. 4B, 1 mg/kg) was “prevented the development of thrombocytopenia; also recorded: had the same effect on d-Dimers and post TBI thrombocytopenia”. Besides, the “CSF fibrinolytic activity post CHI” value with WT mice subjected to CHI (WT mice, IV after CHI, CSF obtained 2 hours after CHI, tested on plasma derived clots) is recorded as “inhibited CSF fibrinolytic activity”. Also, the “intracerebral hemorrhage (MRI, extravasation of Hgb) post CHI” value in the test with WT mice subjected to CHI (WT mice, IV immediately after or 2 hrs after CHI, Hgb at 2 or 8 hrs, MRI at 24 hrs) is recorded as “significantly attenuated the expansion of intracerebral hemorrhage; also recorded: decreased ICH to the same extent as tPA-S^481A”. In the test with WT mice subjected to CHI (combination in optimal concentrations, FIG. 3B), the “inhibition of intracerebral hemorrhage compared with combination of TA and aprotinin” value was “comparable to the inhibition induced by a combination of TA and aprotinin”. Moreover, the “neuroprotection (neurological severity score, NSS)” value with WT mice subjected to CHI (FIG. 5) was “the difference in neuroprotection provided by the two tPA variants vanished”; with WT mice subjected to CHI (FIG. 5, listed as tPA^Ser481Ala-DS), “lower neurological severity scores (NSS)”. For the same molecule, the “neuroprotection (neurological severity score, NSS, 24 hours after CHI)” value in the test on WT mice subjected to CHI (given IV immediately after CHI, 1 mg/kg, FIG. 5) is given as “provided less neuroprotection than tPA-S^481A”. Also, the “potency as inhibitor of intracerebral hemorrhage compared with TA or aprotinin” value with WT mice subjected to CHI (optimal concentrations of TA or aprotinin, FIG. 3B) is listed as “more potent inhibitors of intracerebral hemorrhage than optimal concentrations of TA or aprotinin”.
